{
  "source": "the nanobody polyreactivity screen of Harvey et al. (2022)",
  "data": [
    {"assay": "yeast display, Sf9 membrane polyspecificity reagent, FACS + sequencing; frameworks hold sequencing errors", "summary_of_the_method": "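Genes from sorted yeast were amplified by colony PCR, read by MiSeq 2 × 250 sequencing and filtered on CDR length. These cells carried a synthetic nanobody library in Saccharomyces cerevisiae BJ5465 and were sorted by FACS into low and high (top ~1%) gates on anti-HA and streptavidin fluorescence. Polyreactivity is labelled according to the gate of origin.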", "values": [
      {"sequence": "QVQLVESGGGLVQAGGSLRLSCAASGIIFGHYAMGWYRQAPGKERELVAAIRSSGGTTYYADSVKGRFTISRDNAKNTVYLQMNRLKPEDTAVYYCAKRGVHLYHDYYWGQGTQVTVSS", "polyreactivity (PSR sort gate)": "low polyreactivity"},
      {"sequence": "QVQLVESGGGLVQAGGSLRLSCAASGIIFGHYDMGWYRQAPGKERELVAAITFTGDSTYYADSVKGRFTISRDKAKNTVYLQMTSLKPEDTAVYYCAAETPVPWGSWGYDYWGQGTQVTVSS", "polyreactivity (PSR sort gate)": "low polyreactivity"},
      {"sequence": "QVQLVESGGGLVQAGGSLRLSCAASGIIFGIYDMGWSRQAPGKERELVAAIRRSGGSTYYADSVKGRFTISRDNAKNTVYLQMNSLKPEDTAVYYCAATRHSRVRGGDYWGQGTQVTVSS", "polyreactivity (PSR sort gate)": "low polyreactivity"},
      {"sequence": "QVQLVESGGGLVQAGGSLRLSCAASGIIFGKNAMGWYRHAPGKERELVAAISSSGGSTYYADSVKGRFTISRDNAKNTVYLQMNSLKPEDTAVYYCATERGSRRSGSRMDYWGQGTQVTVSS", "polyreactivity (PSR sort gate)": "high polyreactivity"},
      {"sequence": "QVQLVESGGGLVQAGGSLRLSCAASGIIFGQYAMGGYIQAPGKEREFVSAISRSGGSTNYADSVKGLFTISRDNAKNTVYLQMNSLKPEDTAVYYCNKRARHTGDFVWGHGYWGQGTQVTVSS", "polyreactivity (PSR sort gate)": "low polyreactivity"},
      {"sequence": "QVQLVESGGGLVQAGGSLRLSCAASGIIFGRNAMGWYRQAPGKERELVAAIRWSGGSTYYADSVKGRFTISRDNAKNTVYLQMNSLKPEDTAVYYCAKRYSYWSGVKYGYWGQGTQVTVSS", "polyreactivity (PSR sort gate)": "high polyreactivity"},
      {"sequence": "QVQLVESGGGLVQAGGSLRLSCAASGIIFGRNVMGWYRQAPGKERELVAAITRRGVNTYYADSVKGRFTISRDNAKNTVYLQMNSLKPEDTAVYYCAATWWQYDQGLHRYDYWGQGTQVTVSS", "polyreactivity (PSR sort gate)": "high polyreactivity"},
      {"sequence": "QVQLVESGGGLVQAGGSLRLSCAASGIIFGRYAMGWYRQAPGKERELVAAITRGGSTKYADSVKGRFTISRDNAKNTVYLQMNSLKPEDTAVYYCARVRRYPLRYNYWGQGTQVTVSS", "polyreactivity (PSR sort gate)": "high polyreactivity"},
      {"sequence": "QVQLVESGGGLVQAGGSLRLSCAASGIIFGVNAMGWYRQAPGKERELVASITSGGSTNYADSVKGRFTISRDNAKNTVYLQMNSLKPEDTAVYYCNARWWAPGRPGDEINRILDYWGQGTQVTVSS", "polyreactivity (PSR sort gate)": "low polyreactivity"},
      {"sequence": "QVQLVESGGGLVQAGGSLRLSCAASGIIFGWYAMGWYRQAPGKERELVAAINWSGTSTYYADSVKGRFTISRDNAKNTVYLQMNSLKPEDPAVYYCAAYFQKLPTTGYEYWGQGTQVTVSS", "polyreactivity (PSR sort gate)": "low polyreactivity"},
      {"sequence": "QVQLVESGGGLVQAGGSLRLSCAASGIIFGYNAMGLYRQAHGKERELVASIDVSGGITYYADSVKGRFTISRDNAKNTVYLQMNSLKPEDTAVYYCAAAVYGRGSPHYYWGEGTQVTVSS", "polyreactivity (PSR sort gate)": "high polyreactivity"},
      {"sequence": "QVQLVESGGGLVQAGGSLRLSCAASGIIFGYNVMGWYRQAPGKERELVAAISGSGSSTYYADSVKGRFTISRDNAKNTVYLQMNSLKPEDTAVYYCARQRYEYRTTYYYWGQGTQVTVSS", "polyreactivity (PSR sort gate)": "high polyreactivity"},
      {"sequence": "QVQLVESGGGLVQAGGSLRLSCAASGIIFGYYAMGWYRQAPGKERELVAAINQDGSSTYYADSVKGRFTISRDNAKNTVYLQMNSLKPEDTAVYYCNARGVPRQDARMGYWGQGTQVTVSS", "polyreactivity (PSR sort gate)": "low polyreactivity"},
      {"sequence": "QVQLVESGGGLVQAGGSLRLSCAASGIIFGYYAMGWYRQAPGKERELVAAISSIGGSTYYADSVKGRFTISRDNAKNTVYLQMNSLKPEDTAVYYCNAASSRWPEYDYWGQGTQVTVSS", "polyreactivity (PSR sort gate)": "high polyreactivity"},
      {"sequence": "QVQLVESGGGLVQAGGSLRLSCAASGIIFHFNDMGWYRQAPGKERELVAAITSGGSTNYADSVKGRFTLSRDYAKKTVYLQMNSLKPEDTAVYYCNAEPPRGYTVSSGGEMDYWGQGTQVTVSS", "polyreactivity (PSR sort gate)": "low polyreactivity"},
      {"sequence": "QVQLVESGGGLVQAGGSLRLSCAASGIIFHKYAMGWYRQAPGTERELVAAISRSGGRTYYADSVKGRFTISRDNAKNTVYLQMNSLKPEDTAVYYCAARYLKPGGAYDSWGQGTQVTVSS", "polyreactivity (PSR sort gate)": "high polyreactivity"},
      {"sequence": "QVQLVESGGGLVQAGGSLRLSCAASGIIFHLYAMGWYRPAPGKERELVAAISWNGSSTYYADSVKGRFTISRDNAKNTVYLQMNSLKPEDTAVYYCAASYGYFEDYGYWGQGTQVTVSS", "polyreactivity (PSR sort gate)": "low polyreactivity"},
      {"sequence": "QVQLVESGGGLVQAGGSLRLSCAASGIIFHPYAMGWYRQAPGKERELVAVITWPGDSTYYADSVKGRFRISRDNAKNTVYLQMNSLKPEDTAVYYCNVDAWGTSGELPYDYWGQGTQVTVSS", "polyreactivity (PSR sort gate)": "low polyreactivity"},
      {"sequence": "QVQLVESGGGLVQAGGSLRLSCAASGIIFIGNAMGWYRQAPGKERELVAAISSDGDSTYYADSVKGRFTISRDNAKNTVYLQMNSLKPEDTAVYYCAKDYYPDYYGLYLWPFDYWGQGTQVTVSS", "polyreactivity (PSR sort gate)": "high polyreactivity"},
      {"sequence": "QVQLVESGGGLVQAGGSLRLSCAASGIIFIKYAMGWYRQAPGKERELVAAITSGGSTHYADSVKGRFTISRDNAKNTVYLQMNSLKPEETAVYYCNADILRHVAYFKDRYQAGSYWGQGTQVTVSS", "polyreactivity (PSR sort gate)": "low polyreactivity"},
      {"sequence": "QVQLVESGGGLVQAGGSLRLSCAASGIIFINYAMGWYRQAPGKERELVAAINSGGSTKYADSEKGRFTISRDNAKNTVYLLMNSLKPEDTAVYDCAAVPAGRYYWWLYYYWGQGTQVTVSS", "polyreactivity (PSR sort gate)": "high polyreactivity"},
      {"sequence": "QVQLVESGGGLVQAGGSLRLSCAASGIIFIPYAMGWYRQAPGKEREFVAAISSSGGSTYYADSVKGRFTISRDNAKNTVYLQMNSLKPEDTSVYYCAAQYVSRRYSRYNYWGQGTQVTVSS", "polyreactivity (PSR sort gate)": "high polyreactivity"},
      {"sequence": "QVQLVESGGGLVQAGGSLRLSCAASGIIFIPYAMGWYRQAPGKERELVASISKRGGRTYYADSVKGRFTISRDNAKNTVYLQMNSLKPEDTAVYYCAAYARYPVVYGVDYWGQGTQVTVSS", "polyreactivity (PSR sort gate)": "high polyreactivity"},
      {"sequence": "QVQLVESGGGLVQAGGSLRLSCAASGIIFIVNSMGWYRQAPGKERELVADISENGGDTYYADSVKGRFTISRDNAKNTVYLQMNSLKPEDSAVYYCAKSGEPYTRFDYWGQGTQVTVSS", "polyreactivity (PSR sort gate)": "low polyreactivity"},
      {"sequence": "QVQLVESGGGLVQAGGSLRLSCAASGIIFKLYAMGWYRQAPGKEREFVATITKTGGRTYYADSVKGRFTISRDNAKNTVYLQMNSLKPEDTAVYYCAARRVNGKMYYWGQGTQVTVSS", "polyreactivity (PSR sort gate)": "high polyreactivity"},
      {"sequence": "QVQLVESGGGLVQAGGSLRLSCAASGIIFKLYAMGWYRQAPGKERELVAAITYRGGTTYYADSVKGRFTISRDNAKNTVYLQMNSLKPEDTAVYYCAADNTFRDDYFLYYLFNYNYWGQGTQVTVSS", "polyreactivity (PSR sort gate)": "low polyreactivity"},
      {"sequence": "QVQLVESGGGLVQAGGSLRLSCAASGIIFKYNVMGWYRQAPGKERELVAAITDSGTSTFYADSVKGRFTISRDNAKNTVYLQMNSLKPEDTAVYYCAADEFSVFTIETYGYDYWGQGTQVTVSS", "polyreactivity (PSR sort gate)": "low polyreactivity"},
      {"sequence": "QVQLVESGGGLVQAGGSLRLSCAASGIIFKYYAMGSYRQAPGKERELVAAITRSGGSTYYADSVKGRFTISRDNAKNTVYLQMNSLKPVDTGVYYCAAQTGYSYGITWQFTKYNYWGQGTQVTVSS", "polyreactivity (PSR sort gate)": "low polyreactivity"},
      {"sequence": "QVQLVESGGGLVQAGGSLRLSCAASGIIFKYYAMGWYRQAPGKERELVAAISRSSGSTYYADSVKGRFTISRDNAKKTVYLQMNSLKPEDTAVYYCAASGWPQKYDYWGQGTQVTVSS", "polyreactivity (PSR sort gate)": "high polyreactivity"},
      {"sequence": "QVQLVESGGGLVQAGGSLRLSCAASGIIFKYYSKGWYRQAPGKERELVAAITSGGSTNYADSVKGRFTISRDNAKNTVYLQMNSLKPEDTAVYYCAKRFYYRNRFDYWGQGTQETVSS", "polyreactivity (PSR sort gate)": "low polyreactivity"},
      {"sequence": "QVQLVESGGGLVQAGGSLRLSCAASGIIFLANAMGWYRQAPGKERELVAAISLDGGRTYYADSVKGRFTISRDNAKNTVFLQMNSLKPEDTAVYYCAADYGYVILYEYWGQGTQVTVSS", "polyreactivity (PSR sort gate)": "low polyreactivity"},
      {"sequence": "QVQLVESGGGLVQAGGSLRLSCAASGIIFLGYVMGWYRQAPGKERELVAAISSSGGRTYYADSVKGRFTISRDNAKNTVYLQMNSLKPEDTAVYYCATRTLQPGYTYPRYYWGQGTQVTVSS", "polyreactivity (PSR sort gate)": "high polyreactivity"},
      {"sequence": "QVQLVESGGGLVQAGGSLRLSCAASGIIFLNNAMGLYIQAPGKERELVAVISFIGDSTYYADSVKGRFTISRDNSKNSVYLQMNSLKPEDTAVYYCAADYYLPYWFFVGYDYWGQGTQVTVSS", "polyreactivity (PSR sort gate)": "low polyreactivity"},
      {"sequence": "QVQLVESGGGLVQAGGSLRLSCAASGIIFLTNAMGWYRQAPGTVRELVAAITAIGGSTYYADSVKGRFTISRDNAKNTVYLQMNSLKPEDTAVYYCAADCSYVYYLYDYWGQGTQVTVSS", "polyreactivity (PSR sort gate)": "low polyreactivity"},
      {"sequence": "QVQLVESGGGLVQAGGSLRLSCAASGIIFNLYAMGWYRQAPGKERELVAAISWSGGSTYYADSVKGRFTISRDNAKNTVYLQMNSLKPEDTAVYYCATSFLYPYFDEDDYWGQGTQVTVSS", "polyreactivity (PSR sort gate)": "high polyreactivity"},
      {"sequence": "QVQLVESGGGLVQAGGSLRLSCAASGIIFNWYAMGWYRQAPGKERELVAAISGSGDITYYADSVKGRFTISRDNAKNTVYLQMNSLKPEDTAVYYCAADPWTYWEDYDYWGQGTQVTVSS", "polyreactivity (PSR sort gate)": "low polyreactivity"},
      {"sequence": "QVQLVESGGGLVQAGGSLRLSCAASGIIFNWYAMGWYRQAPGKERELVAGISTSGGSTYYADSVKGRFTISRDNAKNTVYLQMNSLKPEDTAVYYCAAGRRGAWQYGYYYWGQGTQVTVSS", "polyreactivity (PSR sort gate)": "high polyreactivity"},
      {"sequence": "QVQLVESGGGLVQAGGSLRLSCAASGIIFNYNAMGWYRQAPGKERELVATISSGDSTNYADSVKGRFTISRDNAKNTVYLQMNSLKPEDTAVYYCAAESPSVFDGYAQLYIILEDYWGQGTQVTVSS", "polyreactivity (PSR sort gate)": "low polyreactivity"},
      {"sequence": "QVQLVESGGGLVQAGGSLRLSCAASGIIFPGYTMGWSRQAPGPEREVVAAISSGGRTNYADSVKGRFTISRDNAKNTVYLQMNSLKPEDTAVYYCAATRVASLGSPMYYCGQGTQVTVSS", "polyreactivity (PSR sort gate)": "high polyreactivity"},
      {"sequence": "QVQLVESGGGLVQAGGSLRLSCAASGIIFPGYVMGWYRQAPGKERELVAAISYSGGRTYYADSVKGRFTISRDNAKNTVYLQMNSLIPEDTAVYYCAARKSYFTSTDRYYGYYYHQSNYLGQGTQVTVSS", "polyreactivity (PSR sort gate)": "high polyreactivity"},
      {"sequence": "QVQLVESGGGLVQAGGSLRLSCAASGIIFPRNAMGWYRQAPWKERELVAGISRSGGSTSYADSVKGRFTFSRDNAKNTVYLQMNSLKPEDTAVFYCASRGHPFKKSYGSWGQGTQVTVSS", "polyreactivity (PSR sort gate)": "high polyreactivity"},
      {"sequence": "QVQLVESGGGLVQAGGSLRLSCAASGIIFPRYVMGWYRQAPGKERELVAAINRSGGSTYYADSVKGRFTISRDYAKNTVYLQMNSLKPEDTAVYYCAALDVRSYRGGYWGQGTQVTVSS", "polyreactivity (PSR sort gate)": "high polyreactivity"},
      {"sequence": "QVQLVESGGGLVQAGGSLRLSCAASGIIFPSYVMGWYRQAPGKERELVARISARGGRTYYADSVKGRFTISRDNAKNTVYLQMNSLKPEDTAVYYCAARWGITTWYDYWGQGTQVTVSS", "polyreactivity (PSR sort gate)": "high polyreactivity"}
    ]}
  ]
}
